Bounds are passed on as bounds.

This series in a line: purified protein yield per well (BCA); higher = higher soluble expression. The protocol: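 Candidate PET hydrolases were expressed in E. coli C41(DE3) in 2 mL autoinduction cultures in 24-deep-well plates, Ni-bead purified and released by SUMO protease cleavage on an OT-2 robot. Yield per well was measured by BCA; values below 25 ug (0.1 mg/mL) are below the detection threshold. Melting temperature was measured by differential scanning fluorimetry with Sypro Orange, ramping from 25 C at 0.3 C/step.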
For the sequence “MVSYSPRYKAVAFTVAAGLVGGGLAGLAPNRHERGPDPTRALLEAPRGPLATARTVVPRAEAAGYGGGTIYHPAEMRTGETYGAVAIIPGRNGPQSGMSWYGPRLASHGFIVFTIDALRPLDRPPARGAQLQAALQQLAVRSPVATHVDAGRLAVMGHSLGGAGALEAAKARPGLRAAIPLTPSDVAGPDFSGVRVPTLILAAEKDTVAPLGRHARKFYRAIPRGTEKAYVELAGATHGFPKLPHPTVARYTIAWLKRWVDGDRRYDRVLCPSGRREPAVSFQRDTCPHD [TEP187]”, the “purified protein yield per well” value is under 25 µg.

“QENPFERGPDPTERSIEAPRGPFATATTTVARGGVQGFGGGTIYYPTDTSEGTFGAVAISPGFTESQSAISWYGQRLASQGFVVFTIDTNGIFDFPDQRGDQLLAALDYLTTHSTVADRIDADRLGVLGHSMGGGGSLSAVDERTELQAAIPLAPWHLNQNWSGVDVPTMIIGGETDFIAPVDTHAEPFYQSLPSSLDKAYLEMKGKGHFVTNSPNTVIAKFAISWLKRFIDNDTRYERFLCPAPSPDAEISEYRDTCPH [TEP078]”: the “purified protein yield per well” value was under 25 µg.

Regarding “GRMDSNVIDASGYSDLSLSFDRTTSGLDFGESGRVSVSINGGSFTVLESLRRASGRTTLQLGSSADNSSIQIRYQTFASSFYEIYTIDNIVIEGNSDSPPPPPPTGDLAAIGAYLETGGTATTPDQFSFTNTGDINIDSLTIDLSGGNASPVFDPNGVSFTVTGSDNVGFSGNFGLSGNSLLTLNFIDFGPGETFSFSGDLDDSNGSYTTGADVMGAELTVSASGNPSVSASFTVDSSNADRAVVNIGGSTPPPPIGGGCGPDPTVASLEASTGPFSFSNIDVPSSAQGFRNGTIYYPTNAPSDCTFGVISVVPGFLANESSIDWWGPRLASHGFIVITINTNTITDQPNSRALQSIAALNYAVNLGNSSSSAIGGKVDSSKQGVMGWSMGGGGALRAAADNPYLKAAMPQAPFNSGPNDFDEITVPTLIIACENDTVASVGIHASPFYNAISSTTEKGFLEINNGNHSCANGGSNRDILGKYGVSWMKRFMDDDTRYSQFLCDVNHTSDSAISDYRENCPY [TEP172]”, the “purified protein yield per well” value was under 25 µg.

With “SPVLALVAGPALANPYQRGPDPTDASITAETGPFKTASVVVPSNTDPGFAGGTIYYPTDTSQGTFAPIVVTPGFVSPQWAISWYGPRLASQGFVVMTIDTLGLFDVVDQRGKEMLAALDYLTNRSAVKDRIDPTRPGLMGHSMGGGGVIRAAAERPGIKAVVPLAPWDPNSSYAWNVKADTLVVGGESDMIAPVAANAEPIYKDLRSAPEKAYLELSGADHVFAFNLPNTTIAKYAIAWMKRFLDDDVRYDRFLCPAPAPGGAIKQYQDTCPNG [TEP158]”, the “purified protein yield per well” value was under 25 µg.

Regarding “QNPYERGPAPSTASLEASRGPFATSSFTVSRPSGYGAGTVYYPTNAGGTVGAIAIVPGYTARQSSINWWGPRLASHGFVVITIDTNSTSDQPASRSRQQLAALDQVATLNSTSSSPIYNKVDTSRMGVMGWSMGGGGSLISAQNRSSLKAAAPQAPWNSSTNFSSVTVPTLIFACESDAIARVGSHASPMYNSMTRNPKQFMEIEGGSHSCANSGNSNQALIGKKGVAWMKRFMDNDTRYTSFACSNPNSTRVSDFRVARCS [ESM114]”, the “purified protein yield per well” value is under 25 µg.

Consider “QIGPDPTSSSLNATSGPFAVSTSNVVLARGFGGGTIYYPTTTGRYGVVAISPGFTATESSVAWLGRRLATHGLVVITINTNSTLDQPASRATQLMAALNHVVNSASSTVRSRVDSTRLAVAGHSMGGGGALIAAENNPTLKAALPLTPWNLSSSFTQVQVPTLIVGADGDSVASVAVHARPFYASLPATTFKAYAELNGASHFTPNSTNTPIGRYGTAWMKRFVDADSRYSPFLCGAPHEAYATALVFDRYNQNCPY [DP027]”, for which the “purified protein yield per well” value was under 25 µg.

For the sequence “ADNPYERGPDPSWSSIEALRGPYTVDDTSVSRWVSGFGGGTIYYPDTTRDGDFGAAVISPGYTGTQSSIDWLGPRLASQGFVVLTIDTNSVYDQPDSRADQLQAALDYLTGSSDVADRIDPDRLALMGHSMGGGGTLRAVDDDPSIKAAIPMTPWHIKKNWSSVSTPTLIFGAERDSIAPHETHAEPFYDSLSRSLPKAYLELNNASHFAPNSSNTEIASISIAWLKRFVDDDTRYEQFVCPGPSGYAIEKYESSCPF [TEP128]”, the “purified protein yield per well” value was under 25 µg.

As to “HAPAHAPAHQPVVAHHHAPFAVRTTVVPKTAVKAFGGGVIYTPQDTGKAVLGAVVITPGFTDTNADEKELAELVASQGFVAFAIDTLDTGDLPDQRATEILAAADYLTGQSAVRSEVSAKDVGLIGYSFGGGGTMQAAQARPSIKAAIGLMPFDFPPASDPNAQYPAYPKLTTPTLVITGQKDDVADPADFGKPAYDSIPGGTPKQYLELKGLDHYAGEHTPVAAIRNAVTAFLKRYLDGNSAYAKLICPAPKVGGPITASYSSCPKG [ESM190]”, the “purified protein yield per well” value was under 25 µg.

Turning to “MPGDALTDPWQNGRSDDGERGDTRRLHHIVRPVDLGGLSTEAEGHPLVLGFASDAGVRRNRGRPGAAEGPAAIRRMLSNLAAHELQTLLDAGDITCEGEALEAAQQACALALAKALSLGAFPVLLGGGHEIAVASFMGLRRYLDDQGDAGKVLVLNIDAHLDLRTSRPPSSGTPFDEIARYCEAHGHAWRYACIGVSKPSNTAALFARADEIGQAPTATNIYGNGSFSVASSSISPLVSGFGGGVVYYPTAPGLYPVVAVSPGFTATWSSISWIGPRLASWGFVVVGIETNTLLDQPSSRGQQLLAALNWAVSSSAPSAVRSRADGTRRGVAGHSMGGGGSLEALAMDTTGNVKAAVPIAPWNTDKTWNNVNEPVLIVGGQWDTVAPVATHSIPFYNTLAGPKAYVELNNATHFFPQFDDAMTSRALVAWFKRWLNNDTRFTPFTCGFSGLSISDFRSNAC [TEP180]”, the “purified protein yield per well” value was under 25 µg.

For “VASPYQRGPDPTVASIEASRGPFAIAQTTIAASSVRGFRGGTVYYPTSTAEGTFGAVAISPGYTATQSSVAWLGPRLASQGFVVVTIDTLSRYDQPASRGTQLLAALDHLTTASSVRTRIDRNRLAVMGHSMGGGGSLSAANTRPTLQAAIPLTGWHTVKNWSGVRVPTLVVGAENDSIAPVTSHSEPFYTSLPSTLDKAYLELNAAGHSAPTSSNVTVAKYSISWLKRFVDDDTRYEQFLCPAPRGTAIQEYRDTCPHS [DP083]”, the “purified protein yield per well” value was under 25 µg.

For “IYTMVDTLSLHDALPISQYRKIPDSKYHLFIKRFYKGFLNLSLWEVRYMSNRLFRARRTVFSVLILFAFMISFVAAIPGVSYASPPIVRYDYAPGKYSGNGPYSYSTYQLPGWSHGATVYYPTNASAPFSGIVFCPPYTGTQIMFRDWGPFFASHGIVLVTMDTSSILISVDERAVEQRTVLNLLKAENSRSGSPLYQKLDTDRVGAMGWSMGGGATWINSAEYPGLKTAMSLAGHNLTAININSKGFGTQCPTIIFCGALDTTYLGGMLQSETVYYNIPSGVPKVYYEVGTAGHFVWGGPTDANDHVAELALAFQKTFLDGDDRWEGFIEKPRFDYLSTFRSRN [TEP185]”, the “purified protein yield per well” value is under 25 µg.

Turning to “DSTSDQHGPDPTKASIEAERGPFDVARVTVPRAGASGFGGGTIYYPSSTEEGKFGAVAIAPGFTASQSSMAWFGPRLASQGFVVFTIDTVTTSDQPDMRGDELRAALRYLTGSSKVKDRIDADRLAVMGHSMGGGGTLEAAKDDPALRAAIPLTPWDLNKNFSRVKTPTMIIGGQSDTIAPVASHSEPFYRSLPDTASKAYLELRGASHFAPNMPNTTIAEYSISWLKRFVDDDRRYDQFLCPAPGASVQISQYLSTCPY [TEP166]”, the “purified protein yield per well” value was under 25 µg.

On to “EPYASIVIVPGYGMIEASIQDWGPFFASWGIIAMTIGTNNPYDFPEERVEALLDAIETIKQENDRINSPIYEKVDLNSFAVSGWSMGGGGAQLAAVIEPTLKAVIALCPWLDNWVLEPDDLNHSVPTLIFSGQYDVNAPPYLHANIHYNYTPSTTDKLLFEVEYGDHYVANGPDGGSGYVGDRAHEWINNYLLGD [TEP055]”, for which the “purified protein yield per well” value was under 25 µg.

Regarding “PWTSYSAGATVYYPRTATAPFSAIVFMQPYTGTQAMNYAWGPWFASHGIVYVNYDSTTTLDTVDSRATQQMNAINALKNENNRSASPLYRKLDTSRIGVMGWSMGGGASWINSANSSIKTAMSLAGHSLTAVSIYKSGRYTKCPTMIFSGLLDTTYLGGMGQSEGVYRNIPSGIAKIHYEVRSAGHMAWGSPTSASSNVAKIALAFQKTFLDGDTRWAAYLTQPSDASTWNTASLPSTGGTTPDYPWWYWWR [TEP072]”, the “purified protein yield per well” value is under 25 µg.

“QTNPYARGPNPTDSLLEASRGPFSISSFTVSRPSGYGAGTVYYPTNAGGTVGAIAIVPGYTARQSSINWWGPRLASHGFVVITIDTNSTLDQPSSRSRQQMAALSQVVSLSRTSTSPIYNKVDASRLGVMGWSMGGGGSLISARDNPSIKAAAPQAPWNTSSNFSSMTVPTLIFACENDSIASTSSHASPMYNSMRLNPRQYFEINNGSHSCANSGNSNQALIGKRGVAWMKRFMDNDTRYTSFACSNPNTFSVSEFRTANCS [ESM180]”: the “purified protein yield per well” value was under 25 µg.

As to “AAPAHHAAPAHAAVHHHAPFALRTTVVPRTAVTKFGGGVIYEPRDTGKPVLGAVVITPGFTDTNADEKEYAELVASQGFVAFAIDTLDTGDIPADRATQMLAAVDWLTGSSPVKAEVSPDRVALLGYSFGGGGAMQAAQSRPSIKAVVGMMPFDAPPESDPNATTPAYPRMTTPTLVITGQEDDVADPKYFGKPAYDSIPAGTPKQYLELKGLGHGAGEHMPVPTVRTAVTAFLKRYLDGNSAYGRFICPAPKAVGPISASLSSCPRG [ESM110]”, the “purified protein yield per well” value was under 25 µg.

For “ATGPSAPCTNCTRGPAPTTAALKSNTGPFTTAKFSVSGLLKGFGNSTVYYPTNTTGKMGAIAVIPGFLSYEDSIEWWGPRLASHGFVVMTMNTSTIYDQPDSRATQLSKALDYVISQSNTSSSPIYGKVDSTRLGAIGWSMGGGGSLKLSTQRSLNAIIPQAPYYAGLNSFNTIKTPALILACSADAVAPVGVHASPFYNKIPSTTPKAFLEIYGGSHFCANSGYPNQDLLGLYGISWMKRFIDFDTRYSQFLCGPNHTASGTISEYRQNCPY [ESM019]”, the “purified protein yield per well” value was under 25 µg.

Take “ATASFQRGPAPSAASIRATDGPFAITRTNVARAAVSGFGGGDIYAPDDTSQGTFGAVAIAPGFTATRSSMAWLAPRIASQGFVVFNIDTLTTSDQPATRGRELLAALDFLTAQSTARAKIDKNRLAVMGHSMGGGGTLEAAKSRPALKAAVPLTPWDLTKNFAGVTVPTMIIGAQSDTIAPVRQHSERFFASLPSGADTGYLELAGASHFAPNIPNTTIASTSVAWLKRFVDEDTRFEQFLCPGPATGATVSEYETNCPHQG [DP071]”: the “purified protein yield per well” value is under 25 µg.

For the sequence “CADRPPVQDEDPAPTAASLAAPLGPYRTSTATVPRGLTEAFGGGTIYYPSGRPRGDTFGGVIIAPGRNGNQGGMAWYGPLLASRGFVVFAIDTLHLKDRPAARAHELEAAMTYLTVRSPVATLVDADRLAVMGHSFGGGAALETAADRPTLRAAIPLMPYDKGREFSNVRVPTLVVAAQNDKIAPVSRHARRFYRSIPASSGKGYLEIAGTTHSSPKKPNTTLAAYVIAWLKRYVDGDERYERFLCPGPIDDPSVALYRNPCS [TEP060]”, the “purified protein yield per well” value is under 25 µg.
